Laboratory results from PMC11055865, “Mechanism of DNA unwinding by MCM8-9 in complex with HROB”.

Legend:
HROB-FLAG [1] = molecular target: T1, HROB-FLAG (human, UniProt Q8N3J3-4 1-646, T126P); test: EMSA; 3 mM EDTA; EMSA: 25 mM Tris-acetate pH 7.5, 3 mM EDTA (or 4 mM ATP/ATPgS + 1 mM Mg acetate), 1 mM DTT, 0.1 mg/ml BSA, 1 nM DNA (100 ng for M13), 15 min on ice, gels at 4 C; mass photometry: 25 mM HEPES-NaOH pH 7.5, 2 mM Mg acetate, 1 mM ATP, room temperature; details: protein: recombinant; tags: C-terminal FLAG; label: 3' 32P-dC (terminal transferase); single strand
T1 sequence: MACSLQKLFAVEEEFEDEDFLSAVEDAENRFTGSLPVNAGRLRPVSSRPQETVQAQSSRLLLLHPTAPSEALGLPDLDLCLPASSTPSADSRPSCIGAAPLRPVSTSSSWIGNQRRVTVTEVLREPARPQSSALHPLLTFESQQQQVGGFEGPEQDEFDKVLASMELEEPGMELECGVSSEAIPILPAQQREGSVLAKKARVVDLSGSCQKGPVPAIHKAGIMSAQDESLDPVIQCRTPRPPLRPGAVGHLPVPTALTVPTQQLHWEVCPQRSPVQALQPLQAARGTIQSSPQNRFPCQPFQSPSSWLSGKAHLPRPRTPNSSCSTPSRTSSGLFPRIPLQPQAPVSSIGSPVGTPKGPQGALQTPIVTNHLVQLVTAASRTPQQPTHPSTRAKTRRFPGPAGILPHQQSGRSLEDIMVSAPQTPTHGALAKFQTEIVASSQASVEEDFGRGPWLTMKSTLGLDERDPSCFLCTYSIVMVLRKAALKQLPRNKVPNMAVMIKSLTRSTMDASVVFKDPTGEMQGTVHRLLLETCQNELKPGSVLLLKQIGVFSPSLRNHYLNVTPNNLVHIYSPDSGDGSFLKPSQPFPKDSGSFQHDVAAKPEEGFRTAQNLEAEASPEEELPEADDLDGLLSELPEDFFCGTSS

HROB-ΔOB = molecular target: T2, HROB-ΔOB (human, UniProt Q8N3J3-4 1-490+575-646, T126P;internal_change); test: EMSA; 3 mM EDTA; comparable to WT HROB; EMSA: 25 mM Tris-acetate pH 7.5, 3 mM EDTA (or 4 mM ATP/ATPgS + 1 mM Mg acetate), 1 mM DTT, 0.1 mg/ml BSA, 1 nM DNA (100 ng for M13), 15 min on ice, gels at 4 C; mass photometry: 25 mM HEPES-NaOH pH 7.5, 2 mM Mg acetate, 1 mM ATP, room temperature; details: protein: recombinant; tags: FLAG; label: 3' 32P-dC (terminal transferase); single strand
T2 sequence: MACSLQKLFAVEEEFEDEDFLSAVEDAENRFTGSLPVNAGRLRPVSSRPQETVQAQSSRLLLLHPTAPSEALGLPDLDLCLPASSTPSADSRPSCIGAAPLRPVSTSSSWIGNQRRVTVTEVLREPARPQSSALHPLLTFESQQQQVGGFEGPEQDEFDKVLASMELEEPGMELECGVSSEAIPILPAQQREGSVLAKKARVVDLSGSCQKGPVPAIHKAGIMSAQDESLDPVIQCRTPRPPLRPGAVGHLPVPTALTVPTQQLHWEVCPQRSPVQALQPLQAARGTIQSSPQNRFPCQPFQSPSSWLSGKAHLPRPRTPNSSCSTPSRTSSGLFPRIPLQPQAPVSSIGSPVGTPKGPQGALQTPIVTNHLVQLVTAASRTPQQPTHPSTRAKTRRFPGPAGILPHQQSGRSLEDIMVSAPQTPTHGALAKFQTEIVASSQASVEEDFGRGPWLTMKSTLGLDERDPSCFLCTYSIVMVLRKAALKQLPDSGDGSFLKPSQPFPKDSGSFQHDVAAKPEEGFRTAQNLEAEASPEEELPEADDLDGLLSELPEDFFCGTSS

HROB-FLAG [2] = molecular target: T1, HROB-FLAG; test: EMSA; 3 mM EDTA; preferred; EMSA: 25 mM Tris-acetate pH 7.5, 3 mM EDTA (or 4 mM ATP/ATPgS + 1 mM Mg acetate), 1 mM DTT, 0.1 mg/ml BSA, 1 nM DNA (100 ng for M13), 15 min on ice, gels at 4 C; mass photometry: 25 mM HEPES-NaOH pH 7.5, 2 mM Mg acetate, 1 mM ATP, room temperature; details: protein: recombinant, tags: C-terminal FLAG
MCM8 R309D;MBP-MCM9 = MCM8 R309D;MBP-MCM9 (human;human, UniProt Q9UJA3;Q9NXL9 1-840;1-1143, R309D|); test: mass photometry; 1 mM ATP, 2 mM Mg acetate; heterodimer bound plus likely hexamer (Peak 4); EMSA: 25 mM Tris-acetate pH 7.5, 3 mM EDTA (or 4 mM ATP/ATPgS + 1 mM Mg acetate), 1 mM DTT, 0.1 mg/ml BSA, 1 nM DNA (100 ng for M13), 15 min on ice, gels at 4 C; mass photometry: 25 mM HEPES-NaOH pH 7.5, 2 mM Mg acetate, 1 mM ATP, room temperature; details: protein: recombinant;recombinant; tags: N-terminal FLAG;N-terminal MBP (not cleaved); chain copies: 3;3; single strand
MCM8 R309D;MBP-MCM9, sequence (Q9UJA3 whole entry R309D, chain 1 of 2): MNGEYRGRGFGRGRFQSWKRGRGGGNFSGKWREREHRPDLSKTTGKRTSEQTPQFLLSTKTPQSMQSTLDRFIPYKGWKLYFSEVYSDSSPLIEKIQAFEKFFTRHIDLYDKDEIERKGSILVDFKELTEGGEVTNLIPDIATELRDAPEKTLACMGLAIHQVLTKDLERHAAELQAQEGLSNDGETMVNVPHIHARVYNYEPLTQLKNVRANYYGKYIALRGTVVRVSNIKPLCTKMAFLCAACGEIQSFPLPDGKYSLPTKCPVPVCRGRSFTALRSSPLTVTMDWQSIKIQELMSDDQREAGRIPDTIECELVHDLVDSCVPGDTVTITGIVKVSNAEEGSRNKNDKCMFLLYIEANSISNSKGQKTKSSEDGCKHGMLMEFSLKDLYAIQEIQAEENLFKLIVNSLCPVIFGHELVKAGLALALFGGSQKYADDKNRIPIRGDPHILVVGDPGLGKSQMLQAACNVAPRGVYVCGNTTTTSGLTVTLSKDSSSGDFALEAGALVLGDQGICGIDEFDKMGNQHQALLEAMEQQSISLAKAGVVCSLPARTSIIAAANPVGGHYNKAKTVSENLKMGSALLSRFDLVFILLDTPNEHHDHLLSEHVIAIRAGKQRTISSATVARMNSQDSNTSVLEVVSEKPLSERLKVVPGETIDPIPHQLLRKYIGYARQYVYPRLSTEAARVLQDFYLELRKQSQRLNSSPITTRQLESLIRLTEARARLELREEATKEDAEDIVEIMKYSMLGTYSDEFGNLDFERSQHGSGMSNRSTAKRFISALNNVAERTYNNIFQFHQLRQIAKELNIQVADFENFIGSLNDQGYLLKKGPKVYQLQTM
MCM8 R309D;MBP-MCM9, sequence (Q9NXL9 whole entry, chain 2 of 2): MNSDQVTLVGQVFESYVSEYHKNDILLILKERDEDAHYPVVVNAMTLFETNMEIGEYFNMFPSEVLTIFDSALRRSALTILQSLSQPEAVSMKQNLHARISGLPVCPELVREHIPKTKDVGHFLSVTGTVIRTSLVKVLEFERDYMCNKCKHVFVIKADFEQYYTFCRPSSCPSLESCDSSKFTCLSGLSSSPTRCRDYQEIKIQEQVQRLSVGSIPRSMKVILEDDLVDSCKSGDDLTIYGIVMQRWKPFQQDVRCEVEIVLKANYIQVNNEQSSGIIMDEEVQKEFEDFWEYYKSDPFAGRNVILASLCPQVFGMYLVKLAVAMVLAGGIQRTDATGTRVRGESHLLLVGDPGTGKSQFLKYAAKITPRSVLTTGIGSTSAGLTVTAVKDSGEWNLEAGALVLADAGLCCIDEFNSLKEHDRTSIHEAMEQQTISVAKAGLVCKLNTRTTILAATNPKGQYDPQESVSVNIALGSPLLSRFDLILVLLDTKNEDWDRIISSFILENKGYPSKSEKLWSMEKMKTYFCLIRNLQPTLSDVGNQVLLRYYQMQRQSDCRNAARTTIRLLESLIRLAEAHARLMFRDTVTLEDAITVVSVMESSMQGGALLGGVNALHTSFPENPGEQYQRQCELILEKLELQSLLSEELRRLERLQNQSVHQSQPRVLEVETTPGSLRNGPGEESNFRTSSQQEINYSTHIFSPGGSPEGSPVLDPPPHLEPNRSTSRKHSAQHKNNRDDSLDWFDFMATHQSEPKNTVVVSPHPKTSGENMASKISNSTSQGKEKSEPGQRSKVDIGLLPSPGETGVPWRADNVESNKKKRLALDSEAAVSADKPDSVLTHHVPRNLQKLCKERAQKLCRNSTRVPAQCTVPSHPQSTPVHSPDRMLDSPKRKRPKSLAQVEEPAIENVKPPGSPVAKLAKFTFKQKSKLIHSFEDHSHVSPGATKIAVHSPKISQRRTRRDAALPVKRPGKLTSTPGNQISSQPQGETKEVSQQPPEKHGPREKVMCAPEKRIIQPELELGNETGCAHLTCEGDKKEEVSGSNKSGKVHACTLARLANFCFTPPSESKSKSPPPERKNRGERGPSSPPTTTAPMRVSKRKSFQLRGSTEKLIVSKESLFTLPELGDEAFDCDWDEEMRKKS

B1: X12-3 HJ3 (93 nt ssDNA) (ssDNA)
DNA: GAGATCTATCTGGTGCCTTCTGACAGTGAATGGGTAACGAATCGTAATAGTCTCTAGACAGCATGTCCTAGCAATGTAATCGTCTATGACGTC
- binding result (HROB-FLAG [1]): binds
- binding result (HROB-ΔOB): binds

B2: Holliday junction (PC1253/PC1254/PC1255/PC1256) (structured_DNA)
DNA 1: TGGGTCAACGTGGGCAAAGATGTCCTAGCAATGTAATCGTCTATGACGTT
DNA 2: TGCCGAATTCTACCAGTGCCAGTGATGGACATCTTTGCCCACGTTGACCC
DNA 3: GTCGGATCCTCTAGACAGCTCCATGATCACTGGCACTGGTAGAATTCGGC
DNA 4: CAACGTCATAGACGATTACATTGCTACATGGAGCTGTCTAGAGGATCCGA
- binding result (HROB-FLAG [2]; label: 3' 32P-dC on PC1253, four-way junction 1:2 2:3 3:4 4:1): binds

B3: Y-structure (PC1254/PC1253) (structured_DNA)
DNA 1: TGCCGAATTCTACCAGTGCCAGTGATGGACATCTTTGCCCACGTTGACCC
DNA 2: TGGGTCAACGTGGGCAAAGATGTCCTAGCAATGTAATCGTCTATGACGTT
- binding result (HROB-FLAG [2]; label: 3' 32P-dC on PC1254, fork 1:2): binds

B4: PC216 (70 nt ssDNA) (ssDNA)
DNA: GTAAGTGCCGCGGTGCGGGTGCCAGGGCGTGCCCTTGGGCTCCCCGGGCGCGTACTCCACCTCATGCATC
- binding result (MCM8 R309D;MBP-MCM9): binds
